Details in all cases: tags: SV40 NLS, 3xFLAG, nucleoplasmin NLS
For one data set, the target named is LPG50154-nAPG07433.1 (synthetic). The experiment in a line: cell_activity; mutated reads, HEK293FT. How it is done:
(§1) 500 ng of plasmid comprising an expression cassette comprising a coding sequence for a fusion protein shown in Table 10 and 500 ng of plasmid comprising an expression cassette encoding for an sgRNA shown in Table 11 were co-transfected into HEK293FT cells at 75-90% confluency in 24-well plates using Lipofectamine 2000 reagent (Life Technologies). Cells were then incubated at 37° C. for 72 h. Following incubation, genomic DNA was then extracted using NucleoSpin 96 Tissue (Macherey-Nagel) following the manufacturer's protocol. The genomic region flanking the targeted genomic site was PCR amplified using the primers in Table 11 and products were purified using ZR-96 DNA Clean and Concentrator (Zymo Research) following the manufacturer's protocol. The purified PCR products underwent Next Generation Sequencing on Illumina MiSeq. Typically, 100,000 of 250 bp paired-end reads (2×100,000 reads) are generated per amplicon. The reads were analyzed using CRISPResso (Pinello, et al. 2016 Nature Biotech, 34:695-697) to calculate the rates of editing. Output alignments were analyzed for INDEL formation or introduction of specific adenine mutations.
(§2) The editing rate for adenines within or proximal to the target sequence is indicated. “A5” indicates, for example, an adenine at position 5 of the target sequence. The position of each nucleotide in the target sequence was determined by numbering the first nucleotide in the target sequence closest to the PAM (which is 3′ of the target for APG07433.1) as position 1, and the position number increases in the 5′ direction away from the PAM sequence. The tables also show which nucleotide the adenine was changed to, and at what rate.

A further data set concerns the target LPG50153-nAPG07433.1 (synthetic). Nature of the data set: cell_activity; mutated reads, HEK293FT. The procedure:
as §1, §2

For a further data set, the target named is LPG50180-nAPG07433.1 (synthetic). The experiment in a line: cell_activity; mutated reads, HEK293FT. The procedure: as §1, §2
In another data set the target is LPG50161-nAPG07433.1 (synthetic). Nature of the data set: cell_activity; mutated reads, HEK293FT. How it is done:
as §1, §2

The next data set addresses LPG50172-nAPG07433.1 (synthetic). Nature of the data set: cell_activity; mutated reads, HEK293FT. The procedure: as §1, §2
Another data set concerns the target LPG50148-nAPG07433.1 (synthetic). Nature of the data set: cell_activity; mutated reads, HEK293FT; PAM 3' of target. The procedure:
as §1, §2

A further data set deals with APG06489-nAPG07433.1 (synthetic). Nature of the data set: cell_activity; A16>G editing, HEK293FT. The procedure:
(§3) 500 ng of plasmid comprising an expression cassette comprising a coding sequence for a fusion protein for each deaminase described in Table 1 and 500 ng of plasmid comprising an expression cassette encoding an sgRNA shown in Table 2 were co-transfected into HEK293FT cells at 75-90% confluency in 24-well plates using Lipofectamine 2000 reagent (Life Technologies). Cells were then incubated at 37° C. for 72 h. Following incubation, genomic DNA was then extracted using NucleoSpin 96 Tissue (Macherey-Nagel) following the manufacturer's protocol. The genomic region flanking the targeted genomic site was PCR amplified using the primers in Table 2 and products were purified using ZR-96 DNA Clean and Concentrator (Zymo Research) following the manufacturer's protocol. The purified PCR products underwent Next Generation Sequencing on Illumina MiSeq. Typically, 100,000 of 250 bp paired-end reads (2×100,000 reads) are generated per amplicon. The reads were analyzed using CRISPResso (Pinello, et al. 2016 Nature Biotech, 34:695-697) to calculate the rates of editing. Output alignments were analyzed for INDEL formation or introduction of specific adenine mutations. Tables 3 through 7 show adenine base editing for each fusion protein comprising nAPG07433.1 and a deaminase from Table 1 and a guide RNA from Table 2. The deaminase component of each fusion protein is indicated. The editing rate for adenines within or proximal to the target sequence is indicated. “A5” indicates, for example, an adenine at position 5 of the target sequence. The position of each nucleotide in the target sequence was determined by numbering the first nucleotide in the target sequence closest to the PAM as position 1, and the position number increases in the […] away from the PAM sequence. The tables also show which nucleotide the adenine was changed to, and at what rate.

For the next data set, the target named is APG09102-nAPG07433.1 (synthetic). Nature of the data set: cell_activity; A16>G editing, HEK293FT. How it is done:
as §3

The target in the next data set is APG09949-nAPG07433.1 (synthetic). The experiment in a line: cell_activity; A16>G editing, HEK293FT. The procedure: as §3
Another data set addresses APG05723-nAPG07433.1 (synthetic). Nature of the data set: cell_activity; A16>G editing, HEK293FT. The procedure:
as §3

For a further data set, the target named is APG08196-nAPG07433.1 (synthetic). Nature of the data set: cell_activity; A16>G editing, HEK293FT. How it is done:
as §3

Another data set deals with APG08449-nAPG07433.1 (synthetic). Nature of the data set: cell_activity; A16>G editing, HEK293FT. The procedure:
as §3

A further data set addresses APG06333-nAPG07433.1 (synthetic). Nature of the data set: cell_activity; A16>G editing, HEK293FT. The procedure:
as §3

The target of the next data set is APG03724-nAPG07433.1 (synthetic). The experiment in a line: cell_activity; A16>G editing, HEK293FT. How it is done:
as §3

The next data set addresses APG05174-nAPG07433.1 (synthetic). The experiment in a line: cell_activity; A16>G editing, HEK293FT. How it is done: as §3

Sequence of APG03724-nAPG07433.1 (synthetic) (chain, as listed by the source): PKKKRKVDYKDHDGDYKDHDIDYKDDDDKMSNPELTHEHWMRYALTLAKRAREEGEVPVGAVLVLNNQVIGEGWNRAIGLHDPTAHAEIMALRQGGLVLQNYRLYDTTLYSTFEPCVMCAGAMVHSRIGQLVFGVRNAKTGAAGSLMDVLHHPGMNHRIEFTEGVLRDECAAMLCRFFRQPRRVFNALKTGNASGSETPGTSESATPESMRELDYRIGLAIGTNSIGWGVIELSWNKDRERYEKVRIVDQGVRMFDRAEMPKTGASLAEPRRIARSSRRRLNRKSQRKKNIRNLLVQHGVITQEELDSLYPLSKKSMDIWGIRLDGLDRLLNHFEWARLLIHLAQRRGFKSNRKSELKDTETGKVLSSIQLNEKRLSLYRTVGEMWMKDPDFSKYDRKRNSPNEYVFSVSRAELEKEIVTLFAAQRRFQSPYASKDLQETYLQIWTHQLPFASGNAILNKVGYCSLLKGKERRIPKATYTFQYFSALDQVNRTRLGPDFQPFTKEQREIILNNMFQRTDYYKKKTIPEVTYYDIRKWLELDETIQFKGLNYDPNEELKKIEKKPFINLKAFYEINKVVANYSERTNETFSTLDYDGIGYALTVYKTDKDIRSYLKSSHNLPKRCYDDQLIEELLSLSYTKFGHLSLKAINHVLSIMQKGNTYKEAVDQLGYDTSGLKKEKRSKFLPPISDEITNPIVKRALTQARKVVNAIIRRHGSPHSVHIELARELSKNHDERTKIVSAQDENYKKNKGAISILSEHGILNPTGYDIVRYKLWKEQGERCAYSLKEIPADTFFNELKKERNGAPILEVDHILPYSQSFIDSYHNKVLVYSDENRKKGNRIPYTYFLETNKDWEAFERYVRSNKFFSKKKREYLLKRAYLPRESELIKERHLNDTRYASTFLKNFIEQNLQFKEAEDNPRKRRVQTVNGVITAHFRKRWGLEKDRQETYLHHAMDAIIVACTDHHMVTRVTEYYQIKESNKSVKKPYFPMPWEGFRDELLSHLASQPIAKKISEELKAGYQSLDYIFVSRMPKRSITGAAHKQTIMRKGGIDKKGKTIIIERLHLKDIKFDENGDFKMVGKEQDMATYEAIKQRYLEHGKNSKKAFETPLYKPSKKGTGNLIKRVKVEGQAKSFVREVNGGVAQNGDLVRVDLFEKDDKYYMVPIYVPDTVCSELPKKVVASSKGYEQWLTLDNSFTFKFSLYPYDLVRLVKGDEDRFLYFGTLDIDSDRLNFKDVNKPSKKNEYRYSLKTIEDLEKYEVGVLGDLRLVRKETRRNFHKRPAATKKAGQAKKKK
Sequence of LPG50161-nAPG07433.1 (synthetic) (chain, as listed by the source): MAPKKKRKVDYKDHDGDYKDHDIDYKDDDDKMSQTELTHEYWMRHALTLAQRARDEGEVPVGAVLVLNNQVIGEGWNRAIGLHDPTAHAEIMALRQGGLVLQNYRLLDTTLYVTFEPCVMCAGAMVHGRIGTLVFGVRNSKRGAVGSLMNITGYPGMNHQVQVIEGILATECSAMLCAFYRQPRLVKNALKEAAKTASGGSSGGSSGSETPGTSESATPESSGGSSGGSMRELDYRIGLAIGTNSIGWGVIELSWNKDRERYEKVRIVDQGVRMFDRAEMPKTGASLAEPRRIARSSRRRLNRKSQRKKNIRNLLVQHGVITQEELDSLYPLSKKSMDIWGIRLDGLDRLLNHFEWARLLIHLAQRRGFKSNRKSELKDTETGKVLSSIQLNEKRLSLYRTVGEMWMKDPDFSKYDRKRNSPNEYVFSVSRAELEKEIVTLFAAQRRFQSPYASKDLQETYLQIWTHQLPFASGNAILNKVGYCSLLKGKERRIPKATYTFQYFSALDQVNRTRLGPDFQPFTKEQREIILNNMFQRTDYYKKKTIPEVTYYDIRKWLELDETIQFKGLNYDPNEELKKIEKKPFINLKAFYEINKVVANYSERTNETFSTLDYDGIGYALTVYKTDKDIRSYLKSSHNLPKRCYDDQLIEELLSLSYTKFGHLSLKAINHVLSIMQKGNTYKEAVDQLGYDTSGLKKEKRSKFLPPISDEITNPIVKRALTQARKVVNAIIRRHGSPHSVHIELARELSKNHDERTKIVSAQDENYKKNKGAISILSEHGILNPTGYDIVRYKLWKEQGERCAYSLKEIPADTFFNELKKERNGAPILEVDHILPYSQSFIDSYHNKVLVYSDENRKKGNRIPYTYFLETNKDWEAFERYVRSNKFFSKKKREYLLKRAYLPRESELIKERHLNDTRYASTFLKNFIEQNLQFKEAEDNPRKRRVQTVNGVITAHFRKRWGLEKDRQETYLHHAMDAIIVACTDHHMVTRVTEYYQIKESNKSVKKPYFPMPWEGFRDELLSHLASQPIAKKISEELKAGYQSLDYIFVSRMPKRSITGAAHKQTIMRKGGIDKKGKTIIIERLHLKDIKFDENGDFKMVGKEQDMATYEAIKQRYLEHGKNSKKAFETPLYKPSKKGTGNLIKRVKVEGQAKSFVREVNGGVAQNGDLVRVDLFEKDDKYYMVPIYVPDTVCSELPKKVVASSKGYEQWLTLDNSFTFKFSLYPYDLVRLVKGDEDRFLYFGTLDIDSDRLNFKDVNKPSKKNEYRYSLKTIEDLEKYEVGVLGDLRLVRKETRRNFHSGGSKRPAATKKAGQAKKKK
Sequence of APG05174-nAPG07433.1 (synthetic) (chain, as listed by the source): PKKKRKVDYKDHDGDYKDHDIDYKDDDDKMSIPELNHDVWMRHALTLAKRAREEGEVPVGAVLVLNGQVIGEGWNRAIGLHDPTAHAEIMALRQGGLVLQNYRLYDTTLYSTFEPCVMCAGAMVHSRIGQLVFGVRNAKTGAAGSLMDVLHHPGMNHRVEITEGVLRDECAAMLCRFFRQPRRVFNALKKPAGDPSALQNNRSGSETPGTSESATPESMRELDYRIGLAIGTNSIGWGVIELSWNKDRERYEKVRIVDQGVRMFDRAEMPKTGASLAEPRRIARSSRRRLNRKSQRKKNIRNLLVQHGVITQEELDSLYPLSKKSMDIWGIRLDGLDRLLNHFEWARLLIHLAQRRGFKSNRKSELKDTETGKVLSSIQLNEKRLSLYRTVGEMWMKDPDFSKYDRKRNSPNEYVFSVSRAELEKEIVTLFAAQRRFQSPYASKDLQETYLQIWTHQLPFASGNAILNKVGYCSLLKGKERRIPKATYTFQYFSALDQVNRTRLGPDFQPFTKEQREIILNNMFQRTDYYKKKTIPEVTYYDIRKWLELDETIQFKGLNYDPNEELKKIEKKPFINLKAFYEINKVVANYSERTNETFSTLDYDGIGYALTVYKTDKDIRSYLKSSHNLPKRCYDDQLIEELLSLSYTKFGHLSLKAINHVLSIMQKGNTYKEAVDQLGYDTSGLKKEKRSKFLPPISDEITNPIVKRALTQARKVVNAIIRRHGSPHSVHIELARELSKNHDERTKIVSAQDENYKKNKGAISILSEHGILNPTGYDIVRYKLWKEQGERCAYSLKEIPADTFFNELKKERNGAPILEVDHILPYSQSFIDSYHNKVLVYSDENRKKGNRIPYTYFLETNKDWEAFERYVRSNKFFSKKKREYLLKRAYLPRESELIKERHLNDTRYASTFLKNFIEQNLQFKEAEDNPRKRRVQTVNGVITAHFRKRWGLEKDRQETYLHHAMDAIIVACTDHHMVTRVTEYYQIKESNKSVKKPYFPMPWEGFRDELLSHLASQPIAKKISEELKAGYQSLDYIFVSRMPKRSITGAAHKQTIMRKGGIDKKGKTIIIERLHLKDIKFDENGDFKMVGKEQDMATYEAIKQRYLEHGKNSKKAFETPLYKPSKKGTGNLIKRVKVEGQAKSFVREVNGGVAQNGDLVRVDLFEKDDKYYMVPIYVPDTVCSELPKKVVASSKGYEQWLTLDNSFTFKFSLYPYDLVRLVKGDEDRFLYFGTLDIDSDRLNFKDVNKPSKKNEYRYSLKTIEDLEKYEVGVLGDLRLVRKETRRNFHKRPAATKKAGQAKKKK

B1: SGN001681 sgRNA ; SGN001681 target (ssRNA ; dsDNA)
RNA: CCGUGCCUUGACCUACCCUGGUCAUAGUUCCAUUAAAGCCAAAAGUGGCUUUGAUGUUUCUAUGAUAAGGGUUUCGACCCGUGGCGUCGGGGAUCGCCUGCCCAUUGAAAUGGGCUUCUCCCCAUUUAUU
DNA 1: CCGTGCCTTGACCTACCCTG
DNA 2: CAGGGTAGGTCAAGGCACGG
For B1, the activity is 2.26% with LPG50154-nAPG07433.1; 1.12% with LPG50153-nAPG07433.1; 1.8% in the data set with LPG50180-nAPG07433.1; 1.47% in the data set with LPG50161-nAPG07433.1; 1.78% with LPG50172-nAPG07433.1; 49.4% with LPG50148-nAPG07433.1.

B2: SGN000186 sgRNA (Table 2) ; SGN000186 target (Table 2) (ssRNA ; dsDNA)
RNA: GGACAGUGCGCAUCUCCCUGGUCAUAGUUCCAUUAAAGCCAAAAGUGGCUUUGAUGUUUCUAUGAUAAGGGUUUCGACCCGUGGCGUCGGGGAUCGCCUGCCCAUUGAAAUGGGCUUCUCCCCAUUUAUU
DNA 1: GGACAGTGCGCATCTCCCTG
DNA 2: CAGGGAGATGCGCACTGTCC
Regarding B2, the activity is 2.5% with APG06489-nAPG07433.1; 6.2% with APG09102-nAPG07433.1; 3.4% with APG09949-nAPG07433.1; 1.9% with APG05723-nAPG07433.1; 3.3% in the data set with APG08196-nAPG07433.1; 5.3% with APG08449-nAPG07433.1. The activity is 4.2% with APG06333-nAPG07433.1, 4.1% with APG03724-nAPG07433.1 and 3.2% with APG05174-nAPG07433.1.

These data come from patent US20220348894, “DNA MODIFYING ENZYMES AND ACTIVE FRAGMENTS AND VARIANTS THEREOF AND METHODS OF USE” (LifeEDIT Therapeutics, Inc., published 2022).
